Assay results from US12269859B2, “Synthetic immune receptors and methods of use thereof” (Angeles Therapeutics, Inc., priority 2016, dated 2025).

B1: 041216-C05 (protein)
chain: MALPVTALLLPLALLLHAARPDIQMTQSPSSLSASVGDRVTITCRSSQSIVHSVGNTFLEWYQQKPGKAPKLLIYKVSNRFSGVPSRFSGSGSGTDFTLTISSLQPEDFATYYCFQGSQFPYTFGQGTKVEIKRLEGKPIPNPLLGLDSTGSGEDLKNVFPPEVAVFEPSKAEIAHTQKATLVCLATGFYPDHVELSWWVNGKEVHSGVCTDPQPLKEQPALNDSRYCLSSRLRVSATFWQNPRNHFRCQVQFYGLSENDEWTQDRAKPVTQIVSAEAWGRADCGITSASYHQGVLSATILYEILLGKATLYAVLVSALVLMAMVKRKDSRGRAKRSGSGATNFSLLKQAGDVEENPGPTSMDWIWRILFLVGAATGAHSFEEVQLVESGGGLVQPGGSLRLSCAASGYEFSRSWMNWVRQAPGKGLEWVGRIYPGDGDTNYSGKFKGRFTISADTSKNTAYLQMNSLRAEDTAVYYCARDGSSWDWYFDVWGQGTLVTVSSTREQKLISEEDGSGTPFPSLAPPIMLLVDGKQQMVVVCLVLDVAPPGLDSPIWFSAGNGSALDAFTYGPSPATDGTWTNLAHLSLPSEELASWEPLVCHTGPGAEGHSRSTQPMHLSGEASTARTCPQEPLRGTPGGALWLGVLRLLLFKLLLFDLLLTCSCLCDPAGPLPSPATTTRLRALGSHRLHPATETGGREATSSPRPQPRDRRWGDTPPGRKPGSPVRAKRSGSGVKQTLNFDLLKLAGDVESNPGPSRGHMTEYKPTVRLATRDDVPRAVRTLAAAFADYPATRHTVDPDRHIERVTELQELFLTRVGLDIGKVWVADDGAAVAVWTTPESVEAGAVFAEIGPRMAELSGSRLAAQQQMEGLLAPHRPKEPAWFLATVGVSPDHQGKGLGSAVVLPGVEAAERAGVPAFLETSAPRNLPFYERLGFTVTADVEVPEGPRTWCMTRKPGA
modifications: Polynucleotide encoding a Synthetic Immune Receptor (SIR)
B2: 091216-A03 (protein)
chain: MALPVTALLLPLALLLHAARPLEGKPIPNPLLGLDSTGSGEDLKNVFPPEVAVFEPSKAEIAHTQKATLVCLATGFYPDHVELSWWVNGKEVHSGVCTDPQPLKEQPALNDSRYCLSSRLRVSATFWQNPRNHFRCQVQFYGLSENDEWTQDRAKPVTQIVSAEAWGRADCGITSASYHQGVLSATILYEILLGKATLYAVLVSALVLMAMVKRKDSRGRAKRSGSGATNFSLLKQAGDVEENPGPTSTMALPVTALLLPLALLLHAARPDIQMTQSPSSLSASVGDRVTITCRSSQSIVHSVGNTFLEWYQQKPGKAPKLLIYKVSNRFSGVPSRFSGSGSGTDFTLTISSLQPEDFATYYCFQGSQFPYTFGQGTKVEIKRGGGGSGGGGSGGGGSEVQLVESGGGLVQPGGSLRLSCAASGYEFSRSWMNWVRQAPGKGLEWVGRIYPGDGDTNYSGKFKGRFTISADTSKNTAYLQMNSLRAEDTAVYYCARDGSSWDWYFDVWGQGTLVTVSSTREQKLISEEDGSGIQNPDPAVYQLRDSKSSDKSVCLFTDFDSQTNVSQSKDSDVYITDKCVLDMRSMDFKSNSAVAWSNKSDFACANAFNNSIIPEDTFFPSSDVPCDVKLVEKSFETDTNLNFQNLSVIGFRILLLKVAGFNLLMTLRLWSSRAKRSGSGVKQTLNFDLLKLAGDVESNPGPSRGHMTEYKPTVRLATRDDVPRAVRTLAAAFADYPATRHTVDPDRHIERVTELQELFLTRVGLDIGKVWVADDGAAVAVWTTPESVEAGAVFAEIGPRMAELSGSRLAAQQQMEGLLAPHRPKEPAWFLATVGVSPDHQGKGLGSAVVLPGVEAAERAGVPAFLETSAPRNLPFYERLGFTVTADVEVPEGPRTWCMTRKPGA
modifications: Synthetic Immune Receptor (SIR)
B3: 050516-V06 (protein)
chain: MALPVTALLLPLALLLHAARPDIVMTQSPSSLSASVGDRVTITCKASQSVTNDVAWYQQKPGKAPKLLIYYASNRYTGVPSRFSGSGSGTDFTLTISSLQPEDFATYYCQQDYRSPWTFGGGTKVEIKRLEGKPIPNPLLGLDSTGSGEDLKNVFPPEVAVFEPSKAEIAHTQKATLVCLATGFYPDHVELSWWVNGKEVHSGVCTDPQPLKEQPALNDSRYCLSSRLRVSATFWQNPRNHFRCQVQFYGLSENDEWTQDRAKPVTQIVSAEAWGRADCGITSASYHQGVLSATILYEILLGKATLYAVLVSALVLMAMVKRKDSRGRAKRSGSGATNFSLLKQAGDVEENPGPTSMDWIWRILFLVGAATGAHSFEQVQLEESGGGVVRPGRSLRLSCAASGFTFSDYGVNWIRQAPGKGLEWVTIIWGDGRTDYNSALKSRFTVSRNNSNNTLSLQMNSLTTEDTAVYYCVRAPGNRAMEYWGQGVLVTVSSTREQKLISEEDGSGIQNPDPAVYQLRDSKSSDKSVCLFTDFDSQTNVSQSKDSDVYITDKCVLDMRSMDFKSNSAVAWSNKSDFACANAFNNSIIPEDTFFPSSDVPCDVKLVEKSFETDTNLNFQNLSVIGFRILLLKVAGFNLLMTLRLWSSRAKRSGSGVKQTLNFDLLKLAGDVESNPGPSRGHMTEYKPTVRLATRDDVPRAVRTLAAAFADYPATRHTVDPDRHIERVTELQELFLTRVGLDIGKVWVADDGAAVAVWTTPESVEAGAVFAEIGPRMAELSGSRLAAQQQMEGLLAPHRPKEPAWFLATVGVSPDHQGKGLGSAVVLPGVEAAERAGVPAFLETSAPRNLPFYERLGFTVTADVEVPEGPRTWCMTRKPGA
modifications: Synthetic Immune Receptor (SIR)
B4: 081516-I03 (protein)
chain: MALPVTALLLPLALLLHAARPLEGKPIPNPLLGLDSTGSGEDLKNVFPPEVAVFEPSKAEIAHTQKATLVCLATGFYPDHVELSWWVNGKEVHSGVCTDPQPLKEQPALNDSRYCLSSRLRVSATFWQNPRNHFRCQVQFYGLSENDEWTQDRAKPVTQIVSAEAWGRADCGITSASYHQGVLSATILYEILLGKATLYAVLVSALVLMAMVKRKDSRGRAKRSGSGATNFSLLKQAGDVEENPGPTSTMALPVTALLLPLALLLHAARPDIVMTQSPSSLSASVGDRVTITCKASQSVTNDVAWYQQKPGKAPKLLIYYASNRYTGVPSRFSGSGSGTDFTLTISSLQPEDFATYYCQQDYRSPWTFGGGTKVEIKRGGGGSGGGGSGGGGSQVQLEESGGGVVRPGRSLRLSCAASGFTFSDYGVNWIRQAPGKGLEWVTIIWGDGRTDYNSALKSRFTVSRNNSNNTLSLQMNSLTTEDTAVYYCVRAPGNRAMEYWGQGVLVTVSSTREQKLISEEDLGSGTPFPSLAPPIMLLVDGKQQMVVVCLVLDVAPPGLDSPIWFSAGNGSALDAFTYGPSPATDGTWTNLAHLSLPSEELASWEPLVCHTGPGAEGHSRSTQPMHLSGEASTARTCPQEPLRGTPGGALWLGVLRLLLFKLLLFDLLLTCSCLCDPAGPLPSPATTTRLRALGSHRLHPATETGGREATSSPRPQPRDRRWGDTPPGRKPGSPVRAKRSGSGVKQTLNFDLLKLAGDVESNPGPSRSRGHMTEYKPTVRLATRDDVPRAVRTLAAAFADYPATRHTVDPDRHIERVTELQELFLTRVGLDIGKVWVADDGAAVAVWTTPESVEAGAVFAEIGPRMAELSGSRLAAQQQMEGLLAPHRPKEPAWFLATVGVSPDHQGKGLGSAVVLPGVEAAERAGVPAFLETSAPRNLPFYERLGFTVTADVEVPEGPRTWCMTRKPGA
modifications: Polynucleotide encoding a Synthetic Immune Receptor (SIR)
B5: 012517-E12 (protein)
chain: MALPVTALLLPLALLLHAARPLEGKPIPNPLLGLDSTGSGEDLKNVFPPEVAVFEPSKAEIAHTQKATLVCLATGFYPDHVELSWWVNGKEVHSGVCTDPQPLKEQPALNDSRYCLSSRLRVSATFWQNPRNHFRCQVQFYGLSENDEWTQDRAKPVTQIVSAEAWGRADCGITSASYHQGVLSATILYEILLGKATLYAVLVSALVLMAMVKRKDSRGRAKRSGSGATNFSLLKQAGDVEENPGPTSMALPVTALLLPLALLLHAARPDIQMTQTTSSLSASLGDRVTISCRASQDISNYLNWYQQKPDGTVKLLIYYTSILHSGVPSRFSGSGSGTDYSLTISNLEQEDFATYFCQQGNTLPWTFGGGTKLEIKAGGGGSGGGGSGGGGSEVQLVESGGGLVKPGGSLKLSCAASGFAFSIYDMSWVRQTPEKRLEWVAYISSGGGTYYPDTVKGRFTISRDNAKNTLYLQMSSLKSEDTAMYYCARHSGYGTHWGVLFAYWGQGTLVTVSATREQKLISEEDGSGIQNPDPAVYQLRDSKSSDKSVCLFTDFDSQTNVSQSKDSDVYITDKCVLDMRSMDFKSNSAVAWSNKSDFACANAFNNSIIPEDTFFPSSDVPCDVKLVEKSFETDTNLNFQNLSVIGFRILLLKVAGFNLLMTLRLWSSRAKRSGSGVKQTLNFDLLKLAGDVESNPGPSRGHMTEYKPTVRLATRDDVPRAVRTLAAAFADYPATRHTVDPDRHIERVTELQELFLTRVGLDIGKVWVADDGAAVAVWTTPESVEAGAVFAEIGPRMAELSGSRLAAQQQMEGLLAPHRPKEPAWFLATVGVSPDHQGKGLGSAVVLPGVEAAERAGVPAFLETSAPRNLPFYERLGFTVTADVEVPEGPRTWCMTRKPGA
B6: 102715-E07 (protein)
chain: MALPVTALLLPLALLLHAARPDIQMTQSPSSLSASVGDRVTITCRASQTIWSYLNWYQQRPGKAPNLLIYAASSLQSGVPSRFSGRGSGTDFTLTISSLQAEDFATYYCQQSYSIPQIFGQGTKLEIKLEGKPIPNPLLGLDSTGSGEDLKNVFPPEVAVFEPSKAEIAHTQKATLVCLATGFYPDHVELSWWVNGKEVHSGVCTDPQPLKEQPALNDSRYCLSSRLRVSATFWQNPRNHFRCQVQFYGLSENDEWTQDRAKPVTQIVSAEAWGRADCGITSASYHQGVLSATILYEILLGKATLYAVLVSALVLMAMVKRKDSRGRAKRSGSGATNFSLLKQAGDVEENPGPTSMDWIWRILFLVGAATGAHSFEQVQLQQSGPGLVKPSQTLSLTCAISGDSVSSNSAAWNWIRQSPSRGLEWLGRTYYRSKWYNDYAVSVKSRITINPDTSKNQFSLQLNSVTPEDTAVYYCAREVTGDLEDAFDIWGQGTMVTVSSTREQKLISEEDGSGIQNPDPAVYQLRDSKSSDKSVCLFTDFDSQTNVSQSKDSDVYITDKCVLDMRSMDFKSNSAVAWSNKSDFACANAFNNSIIPEDTFFPSSDVPCDVKLVEKSFETDTNLNFQNLSVIGFRILLLKVAGFNLLMTLRLWSSRAKRSGSGVKQTLNFDLLKLAGDVESNPGPSRGHMTEYKPTVRLATRDDVPRAVRTLAAAFADYPATRHTVDPDRHIERVTELQELFLTRVGLDIGKVWVADDGAAVAVWTTPESVEAGAVFAEIGPRMAELSGSRLAAQQQMEGLLAPHRPKEPAWFLATVGVSPDHQGKGLGSAVVLPGVEAAERAGVPAFLETSAPRNLPFYERLGFTVTADVEVPEGPRTWCMTRKPGA
modifications: Synthetic Immune Receptor (SIR)

Tested on: target antigen-expressing cell line
Test: Jurkat NFAT-GFP assay, coculture with target cell lines expressing the respective target antigen (summary Table 10A)
Type: cell-based, human
Design: key: The signs +/−, +, 2+ etc. after the name of the cell lines indicate the relative degree of positivity on the Jurkat-NFAT-GFP assay as measured by the % GFP positive cells; +: relative degree of positivity on the Jurkat-NFAT-GFP assay as measured by the % GFP positive cells; 2+: relative degree of positivity on the Jurkat-NFAT-GFP assay as measured by the % GFP positive cells
Conditions: relative % GFP positive cells; for NFAT-GFP ASSAY Positive Cell lines: NALM6: SIR-expressing Jurkat-NFAT-GFP cells cocultured with NALM6; for NFAT-GFP ASSAY Positive Cell lines: RAJI: SIR-expressing Jurkat-NFAT-GFP cells cocultured with RAJI
How it was run: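 Coculture of SIR-bearing Jurkat NFAT-GFP reporters with target cells, ~1:2 E:T, ~4–18 h. FACS quantified % GFP+ cells, ranked semi-quantitatively against parental Jurkat-NFAT-GFP.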

Row | Molecule | NFAT-GFP ASSAY Positive Cell lines: NALM6 | NFAT-GFP ASSAY Positive Cell lines: RAJI
1 | B1 | (+/−) | RAJI (+/−), NALM6
2 | B2 |  | RAJI (+)
3 | B3 |  | RAJI (+/−)
4 | B4 |  | RAJI (+/−)
5 | B5 | (+/−) | RAJI (+), NALM6
6 | B6 |  | RAJI (+)
